T1: ZHD5-MBP (UniProt Q9FRL5 1-309)
T1 sequence: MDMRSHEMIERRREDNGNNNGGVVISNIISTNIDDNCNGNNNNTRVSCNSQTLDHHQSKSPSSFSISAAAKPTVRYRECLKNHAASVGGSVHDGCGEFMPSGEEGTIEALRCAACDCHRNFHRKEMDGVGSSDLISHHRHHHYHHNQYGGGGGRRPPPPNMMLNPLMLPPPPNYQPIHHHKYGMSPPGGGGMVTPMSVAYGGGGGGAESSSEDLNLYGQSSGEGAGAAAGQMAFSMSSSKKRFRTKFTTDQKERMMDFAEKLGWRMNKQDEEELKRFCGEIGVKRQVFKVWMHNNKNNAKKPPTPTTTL

B1: ATTA EMSA probe (dsDNA)
DNA 1: CAGTGTCTTGTAATTAAAAA
DNA 2: TTTTTAATTACAAGACACTG
B2: recombinant MIF1-GST fusion protein (natural protein)
chain: MMKKRQMVIKQRSRNSNTSSSWTTTSSSSSSSEISNVRYVECQKNHAANIGGYAVDGCREFMAAGVEGTVDALRCAACGCHRNFHRKEVDTEVVCEYSPPNA
B3: recombinant ZHD5-MBP fusion protein (natural protein)
chain: T1 sequence

In one data set the target is T1, ZHD5-MBP. In words: EMSA. For orientation: Mobility shift assays separate free from complexed probe on a gel.
Data set [1] has as its target B3. In words: native gel or EMSA.
The data set “native gel or EMSA” deals with the molecule itself. In words: native gel or EMSA.

As to B1, the binding result with ZHD5-MBP is reported as “binds”. Take B2: the binding result in data set [1] is on record as “binds”.

In the case of B3, the binding result in “native gel or EMSA” is given as “binds”.

The record behind these values is PMC3020774 (The Journal of Biological Chemistry, 2010).
